Experiment [1] deals with T1, human CD22 on B cells of human PBMCs (human, UniProt P20273 20-847).
T1 construct: whole, on cells; also called CD22 on human B cells
Briefly: flow cytometry; Alexa Fluor 647-labelled antibody on CD20+ B cells of human PBMCs. As for the experimental part:
(§1) Binding of humanized anti-CD22 antibodies to human or cynomolgus PBMCs was measured by flow cytometry. Trima residuals were received from Vitalant and cynomolgus monkey whole blood were received from BioIVT. Both were diluted 1:4 with Phosphate Buffered Saline (PBS, Gibco). Diluted blood was split into two tubes and underplayed with 15 mL Ficoll-Paque (GE Healthcare). Tubes were centrifuged for 30 minutes at 400×g. PBMCs were collected from the interface, washed and resuspended in FACS buffer (PBS with 0.5% Bovine Serum Albumin (Gibco)). 100K PBMCs from human and cynomolgus monkey were plated in 96-well plates and pelleted by centrifugation for five minutes at 400×g and stained at 4° C. in 100 μl Fixable Viability Dye eFluor 780 (Thermo Fisher) diluted 1:4000 in PBS. Cells were centrifuged and stained at 4° C. in 100 μl FACS buffer for 30 minutes containing FcR Blocking Reagent (Miltenyi Biotec), anti-CD20 and Alexa Fluor 647 conjugated CD22 binding antibodies, which were labeled using Molecular Probes Alexa Fluor 647 Protein Labeling kit (Molecular Probes) according to manufacturer's protocol. Cells were centrifuged and washed twice in 200 μl FACS buffer and fixed in 100 μl 0.5% paraformaldehyde. Cells were analyzed on Attune NxT Flow Cytometer (Thermo Fisher), with subsequent data analysis by Flowjo 10.7 (Treestar). Dead cells were excluded by gating on the eFluor 780-negative population. CD20+ cells were gated to identify B cells and median fluorescent intensity for CD22 was determined.
(In general: A flow cytometer gives signals particle by particle.)

For experiment [2], the target named is T2, cynomolgus monkey CD22 on B cells of cynomolgus PBMCs (cynomolgus monkey).
T2 construct: whole, on cells; also called cynomolgus CD22; Cyno CD22
Briefly: flow cytometry; Alexa Fluor 647-labelled antibody on CD20+ B cells of cynomolgus PBMCs. As for the experimental part: as §1

Experiment [3] addresses T3, human CD22 (d1 to d7 domain according to NP_001762.2) (human, UniProt P20273 20-687).
T3 construct: domain: d1 to d7 domain; also called human CD22-gly; Siglec-2
Nature of the experiment: SPR; mAb supernatant captured on protein A chip, human CD22 injected. As for the experimental part:
Binding of humanized anti-CD22 antibodies to human CD22 was measured by surface plasmon resonance (SPR). For assessment of binding by SPR, biotinylated protein A (15 μg/mL) was immobilized to the surface of an NLC chip. 30 μL of mAb supernatant was added to 150 μL of PBS-T and captured over the protein A surface. Serial dilutions of human CD22-gly (300 nM, 3× dilution) were injected over the mAb-coated chips, and binding kinetics were determined. Chips were regenerated using 4:1 v/v of Pierce IgG elution butter/4M NaCl.

Experiment [4] addresses T3, human CD22 (d1 to d7 domain according …). Briefly: SPR; summary table, column 'CD22 KD (nM)'. For orientation: In SPR one partner is held on a chip, and binding of the other changes the refractive index at the surface.
In experiment [5] the target is T1, human CD22 on B cells of human PBMCs. Briefly: flow cytometry; Alexa Fluor 647-labelled antibody, human PBMCs. On the procedure:
as §1
(§2) The fold increase in binding was determined by calculating the ratio of CD22 median fluorescent intensity on CD20⁺ over CD20⁻ cells.

In experiment [6] the target is T2, cynomolgus monkey CD22 on B cells of …. Briefly: flow cytometry; Alexa Fluor 647-labelled antibody, cynomolgus PBMCs. As for the experimental part: as §1, §2

As usually defined, the Kd is the free concentration of one partner at which half of the binding sites on the other are occupied at equilibrium, for simple one-to-one binding. The term koff denotes the first-order rate constant of dissociation. For orientation: kon means the second-order rate constant of association.

B1: TNT70 (antibody, human IgG1, kappa, V domains shown)
VH: QVQLLESGGGVVQPGGSLRLSCAASGFAFSIYDMNWVRQAPGKGLEWVSAISSGGGTTYYADSVKGRFTISRDNAKNSLYLQMNSLRAEDTAVYYCARHSGYGTHWGVLFAYWGRGTLVTVSS
VL: DIQMTQSPSSLSASVGDRVTITCRASQDIHGYLNWYQQKPGKAPKLLIYYTSILHSGVPSRFSGSGSGTDFTLTISSLQPEDFATYFCQQGNTLPWTFGQGTKLEIKR
Turning to B1, the results for the “CD22 Median Fluorescent Intensity on CD20+ cells” value (“CD22 Median Fluorescent Intensity” for short) in experiment [1] and in experiment [2] were 1560 and 1290, respectively.

B2: TNT86 (antibody, human IgG1, kappa, V domains shown)
VH: QVQLLESGGGVVQPGGSLRLSCAASGFAFSIYDMNWVRQAPGKGLEWVSAISSGGGTTYYADSVKGRFTISRDNAKNSLYLQMNSLRAEDTAVYYCARHSGYGTHWGVLFAYWGRGTLVTVSS
VL: DIVMTQTPLSLSVTPGQPASISCRASQDIHGYLNWYQQKPGQSPQLLIYYTSILHSGVPDRFSGSGSGTDFTLKISRVEAEDVGVYFCQQGNTLPWTFGGGTKLEIKR
Take B2: the figures for the Kd in experiment [3] and in experiment [4] were 1.09 nM and 1.1 nM, respectively. In experiment [3], this molecule had an off-rate (koff) of 0.000141 s⁻¹. Further, in experiment [3], the association rate constant (kon) is 130000 M⁻¹ s⁻¹. In addition, the “CD22: CD20+/CD20- (ratio of median fluorescent intensity)” value worked out at 23.9 fold in experiment [5] and 10.9 fold in experiment [6]. Besides, the “CD22 Median Fluorescent Intensity” value was 1570 in experiment [1] and 1430 in experiment [2].

B3: TNT79 (antibody, human IgG1, kappa, V domains shown)
VH: EVQLVESGGGLVQPGGSLRLSCAASGFTFSSYEMNWVRQAPGKGLEWVSYISSSGSTIYYADSVKGRFTISRDNAKNSLYLQMNSLRAEDTAVYYCARHSGYGTHWGVLFAYWGRGTLVTVSS
VL: DIQMTQSPSSLSASVGDRVTITCRASQSISSYLNWYQQKPGKAPKLLIYAASSLQSGVPSRFSGSGSGTDFTLTISSLQPEDFATYYCQQGNTLPWTFGQGTKLEIKR
As to B3, the Kd in experiment [4] was determined as 23 nM. Moreover, the “CD22 Median Fluorescent Intensity” value in experiment [1] worked out at 1300; in experiment [2], 349.

B4: TNT85 (antibody, human IgG1, kappa, V domains shown)
VH: EVQLVESGGGLVQPGGSLRLSCAASGFAFSIYDMSWVRQAPGKGLEWVAYISSGGGTTYYPDTVKGRFTISRDNSKNTLYLQMNSLRAEDTAVYYCARHSGYGTHWGVLFAYWGRGTLVTVSS
VL: DIVMTQTPLSLSVTPGQPASISCRASQDIHGYLNWYQQKPGQSPQLLIYYTSILHSGVPDRFSGSGSGTDFTLKISRVEAEDVGVYFCQQGNTLPWTFGGGTKLEIKR
On to B4, for which the Kd in experiment [3] is 1.25 nM; in experiment [4] it was 1.3 nM. The dissociation rate constant (koff) in experiment [3] came out at 0.000169 s⁻¹. The same molecule showed a kon in experiment [3] of 135000 M⁻¹ s⁻¹. For the same molecule, the “CD22: CD20+/CD20- (ratio of median fluorescent intensity)” value in experiment [5] stood at 23.1 fold; in experiment [6], 9.6 fold. Further, the “CD22 Median Fluorescent Intensity” value was 1580 in experiment [1] and 1380 in experiment [2].

B5: TNT78 (antibody, human IgG1, kappa, V domains shown)
VH: QVQLLESGGGVVQPGGSLRLSCAASGFAFSIYDMNWVRQAPGKGLEWVSAISSGGGTTYYADSVKGRFTISRDNAKNSLYLQMNSLRAEDTAVYYCARHSGYGTHWGVLFAYWGRGTLVTVSS
VL: DIQMTQSPSSLSASVGDRVTITCRASQSISSYLNWYQQKPGKAPKLLIYAASSLQSGVPSRFSGSGSGTDFTLTISSLQPEDFATYYCQQGNTLPWTFGQGTKLEIKR
Regarding B5, the values for the Kd in experiment [3] and in experiment [4] were 24.9 nM and 25 nM, respectively. This molecule gave an off-rate constant (koff) in experiment [3] of 0.00485 s⁻¹. The molecule also registered a kon in experiment [3] of 195000 M⁻¹ s⁻¹. The “CD22: CD20+/CD20- (ratio of median fluorescent intensity)” value in experiment [5] was found to be 19.8 fold; in experiment [6], 1.2 fold. The “CD22 Median Fluorescent Intensity” value in experiment [1] is 1210; in experiment [2] it was 112.

B6: TNT87 (antibody, human IgG1, kappa, V domains shown)
VH: EVQLVESGGGLVQPGGSLRLSCAASGFTFSSYEMNWVRQAPGKGLEWVSYISSSGSTIYYADSVKGRFTISRDNAKNSLYLQMNSLRAEDTAVYYCARHSGYGTHWGVLFAYWGRGTLVTVSS
VL: DIVMTQTPLSLSVTPGQPASISCRASQDIHGYLNWYQQKPGQSPQLLIYYTSILHSGVPDRFSGSGSGTDFTLKISRVEAEDVGVYFCQQGNTLPWTFGGGTKLEIKR
Regarding B6, binding in experiment [4] was put at a Kd of 0.7 nM. Also, the results for the “CD22 Median Fluorescent Intensity” value in experiment [1] and in experiment [2] were 1440 and 1370, respectively.

B7: TNT76 (antibody, human IgG1, kappa, V domains shown)
VH: QVQLQESGPGLVKPSDTLSLTCTVSGFAFSIYDMSWIRQPPGKGLEWIAYISSGGGTTYYNPSLKSRVTISVDTSKNQFSLKLSSVTAADTAVYYCARHSGYGTHWGVLFAYWGRGTLVTVSS
VL: DIQMTQSPSSVSASVGDRVTITCRASQDIHGYLAWYQQKPGKAPKLLIYYTSSLQSGVPSRFSGSGSGTDFTLTISSLQPEDFATYYCQQGNTLPWTFGQGTKLEIKR
B7: the “CD22 Median Fluorescent Intensity” value was 1190 in experiment [1] and 140 in experiment [2].

B8: TNT73 (antibody, human IgG1, kappa, V domains shown)
VH: EVQLVESGGGLVQPGGSLRLSCAASGFAFSIYDMSWVRQAPGKGLEWVAYISSGGGTTYYPDTVKGRFTISRDNSKNTLYLQMNSLRAEDTAVYYCARHSGYGTHWGVLFAYWGRGTLVTVSS
VL: DIQMTQSPSSVSASVGDRVTITCRASQDIHGYLAWYQQKPGKAPKLLIYYTSSLQSGVPSRFSGSGSGTDFTLTISSLQPEDFATYYCQQGNTLPWTFGQGTKLEIKR
On to B8, for which the Kd in experiment [3] came out at 14.5 nM; in experiment [4] it was 14 nM. This molecule also showed a koff in experiment [3] of 0.0023 s⁻¹. Also, in experiment [3], the kon turned out to be 158000 M⁻¹ s⁻¹. For the same molecule, the “CD22: CD20+/CD20- (ratio of median fluorescent intensity)” value in experiment [5] turned out to be 19.9 fold; in experiment [6], 1.9 fold. Moreover, the “CD22 Median Fluorescent Intensity” value in experiment [1] came out at 1410; in experiment [2], 216.

B9: TNT74 (antibody, human IgG1, kappa, V domains shown)
VH: QVQLLESGGGVVQPGGSLRLSCAASGFAFSIYDMNWVRQAPGKGLEWVSAISSGGGTTYYADSVKGRFTISRDNAKNSLYLQMNSLRAEDTAVYYCARHSGYGTHWGVLFAYWGRGTLVTVSS
VL: DIQMTQSPSSVSASVGDRVTITCRASQDIHGYLAWYQQKPGKAPKLLIYYTSSLQSGVPSRFSGSGSGTDFTLTISSLQPEDFATYYCQQGNTLPWTFGQGTKLEIKR
B9: the Kd in experiment [3] was found to be 15.6 nM; in experiment [4] it was 16 nM. Also, the “CD22 Median Fluorescent Intensity” value in experiment [1] is 1310.

B10: TNT80 (antibody, human IgG1, kappa, V domains shown)
VH: QVQLQESGPGLVKPSDTLSLTCTVSGFAFSIYDMSWIRQPPGKGLEWIAYISSGGGTTYYNPSLKSRVTISVDTSKNQFSLKLSSVTAADTAVYYCARHSGYGTHWGVLFAYWGRGTLVTVSS
VL: DIQMTQSPSSLSASVGDRVTITCRASQSISSYLNWYQQKPGKAPKLLIYAASSLQSGVPSRFSGSGSGTDFTLTISSLQPEDFATYYCQQGNTLPWTFGQGTKLEIKR
With B10, the “CD22 Median Fluorescent Intensity” value turned out to be 1210 in experiment [1] and 159 in experiment [2].

B11: TNT69 (antibody, human IgG1, kappa, V domains shown)
VH: EVQLVESGGGLVQPGGSLRLSCAASGFAFSIYDMSWVRQAPGKGLEWVAYISSGGGTTYYPDTVKGRFTISRDNSKNTLYLQMNSLRAEDTAVYYCARHSGYGTHWGVLFAYWGRGTLVTVSS
VL: DIQMTQSPSSLSASVGDRVTITCRASQDIHGYLNWYQQKPGKAPKLLIYYTSILHSGVPSRFSGSGSGTDFTLTISSLQPEDFATYFCQQGNTLPWTFGQGTKLEIKR
For B11, the Kd in experiment [3] came to 0.624 nM; in experiment [4], 0.6 nM. The koff in experiment [3] stood at 0.000126 s⁻¹. The on-rate constant (kon) in experiment [3] came out at 201000 M⁻¹ s⁻¹. Also, the “CD22: CD20+/CD20- (ratio of median fluorescent intensity)” value in experiment [5] came to 25.4 fold; in experiment [6] it was 14.9 fold. Besides, the “CD22 Median Fluorescent Intensity” value was 1610 in experiment [1] and 1410 in experiment [2].

The values are drawn from patent publication US20220380768A1 (TALLAC THERAPEUTICS, published 2022).
